Assay results as given in the supplement of paper PMC9170038.

System: MS2 coat protein
Assay: apparent KD of MS2 coat protein; designed switch direction (-1 OFF switch, 1 ON switch): -1; higher = weaker reporter binding
Outline: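 The buffer was Tris-HCl pH 7.5 with KCl, MgCl2, BSA, DTT, tRNA and Tween-20. In it, SNAP-549-labelled MS2 coat protein was titrated in doubling steps from 0.7 or 1.5 nM to 3 µM over chip-bound RNA switches transcribed by stalled E. coli RNA polymerase on Illumina chips. Apparent KD is the per-design median over clusters of curve fits to normalised fluorescence.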

[1] = Eterna round: R95, input ligand: microRNA oligo, concentration not stated
[2] = input ligand: microRNA oligo, concentration not stated
[3] = Eterna round: R95, input ligand: FMN 200 uM
[4] = Eterna round: R95, input ligand: none

**Q.** Which “apparent KD of MS2 coat protein” value (input ligand: FMN 200 uM) does the source give for “GCCGAAUAAGUGAGGAUAUACCUAUGGAUACAUAGGUAGAAGGCACAUGAGGAUCACCCAUGUACCUCAACGGC [JL-BMX4-4.16 Eli mod] (Eterna round: R97, puzzle: Brourd's mod of Exclusion 4)” here?
**A.** The value was 34.5 nM.

**Q.** And the “apparent KD of MS2 coat protein” value (input ligand: none)?
**A.** Its value is 14.8 nM.

**Q.** Which “apparent KD of MS2 coat protein” value [1] does the source give for “GCCGAUUAAGUGAGGAUAUACCUAUGGAUACAUAGGUAGAAGGCACAUGAGGAUCACCCAUGUUCCUCAACGGC [Fiskers BMX 4 - 6] (puzzle: Brourd's mod of Exclusion 4)” here?
**A.** Its value is 15 nM.

**Q.** How did the “apparent KD of MS2 coat protein” value [1] turn out when “GCCGAUUAAGUGAGGAUAUACCUAUGGAUACAUAGGUAGAAGGUACAUGAGGAUCACCCAUGUUCCUCAUCGGC [Fiskers BMX 4 - 10] (puzzle: Brourd's mod of Exclusion 4)” was run?
**A.** Its value is 9.97 nM.

**Q.** What does the source list for “GCCGUAAAUGUGAGGAUAUACCUAUGGAUACAUAGGUAGAAGGCACAUGAGGAUCACCCAUGUCCUUAAUCGGC [Eli BMX r4m3] (Eterna round: R97, puzzle: Brourd's mod of Exclusion 4)”?
**A.** apparent KD of MS2 coat protein (input ligand: FMN 200 uM): 730 nM; apparent KD of MS2 coat protein (input ligand: none): 409 nM

**Q.** What does the source list for “GCCGUAAGUGUGAGGAUAUACCUAUGGAAACAUAGGUAGAAGGCACAUGAGGAUCACCCAUGUUCUCAAUCGGC [Mat - Exclusion 4 - Eli Mod - D5] (Eterna round: R97, puzzle: Brourd's mod of Exclusion 4)”?
**A.** apparent KD of MS2 coat protein (input ligand: FMN 200 uM): 458 nM; apparent KD of MS2 coat protein (input ligand: none): 245 nM

**Q.** Which “apparent KD of MS2 coat protein” value (input ligand: FMN 200 uM) does the source give for “GCCGUACAUGAGGAUCACCCAUGUCAGGAUAUUUAGCACUCGGAGUUCCCGAGAGGUCAAAGAAGGGACAUUGC [EX1 C.17] (Eterna round: R97, puzzle: Exclusion 1)” here?
**A.** The value was 21.6 nM.

**Q.** And the “apparent KD of MS2 coat protein” value (input ligand: none)?
**A.** Its value is 17.4 nM.

**Q.** Which “apparent KD of MS2 coat protein” value (input ligand: FMN 200 uM) does the source give for “GCCGUCAAUGUGAGGAUAUGCCUAUGGAUACGUAGGCAGAAGGCACAUGAGGAUCACCCAUGUCCAAAGACGGC [JL-BMX4-4.31 Eli mod] (Eterna round: R97, puzzle: Brourd's mod of Exclusion 4)” here?
**A.** The value was 2170 nM.

**Q.** What about the “apparent KD of MS2 coat protein” value (input ligand: none) of the same sequence?
**A.** The value was 200 nM.

**Q.** How did the “apparent KD of MS2 coat protein” value [1] turn out when “GCCGUUAAAGGAUAUACAUGAGGAUCACCCAUGUCGGUAUAAAAUUUACCGCCUCCCUGUAGAAGGUUAAGGCA [Xebiatorer] (puzzle: Exclusion 3)” was run?
**A.** Its value is 16.1 nM.

**Q.** Which results are given for “GCCGUUAAGGUAGGAUAUGCUCGGUCUGUUCGUGCAGAAGGGCUGGUCGGCGACUUGAGGAUCACCCAAGUGGUCUUAUAGAAA [Mutated MS2 EX1.19] (Eterna round: R96, puzzle: Exclusion NG 1)”?
**A.** apparent KD of MS2 coat protein (input ligand: FMN 200 uM): 99.6 nM; apparent KD of MS2 coat protein [2]: 52.3 nM; apparent KD of MS2 coat protein (input ligand: none): 54.8 nM

**Q.** With “GCCUAACAUGAGGAUCACCCAUGUCAGGAUAUCCAUAAACACCGGGAUGUACUGGACGGGAGAAGGGACAGGGC [Escelazari] (Eterna round: R97, puzzle: Exclusion 1)” as the sequence, how does the “apparent KD of MS2 coat protein” value (input ligand: FMN 200 uM) read?
**A.** The value was 53.5 nM.

**Q.** What about the “apparent KD of MS2 coat protein” value (input ligand: none) of the same sequence?
**A.** Its value is 51.4 nM.

**Q.** For “GCCUCACAUGAGGAUCACCCAUGUCAGGAUAUCUCGUGCGCAGUAAUUAUCUGGCUAAAGAGAAGGGACAUUAA [Bedile] (puzzle: Exclusion 1)”, which “apparent KD of MS2 coat protein” value [1] is on record?
**A.** The value was 46.6 nM.

**Q.** For “GCCUGAGCAGGAUAUUCAAUAAUUCACAUGAGGAUCACCCAUGUCCAGCGAAAGCUAGGAGGAGAAGGGCUCAGGC [Mat - Exclusion 5 - Eli mod - D86] (puzzle: Exclusion 5)”, which “apparent KD of MS2 coat protein” value [3] is on record?
**A.** The value was 18.3 nM.

**Q.** What about the “apparent KD of MS2 coat protein” value [1] of the same sequence?
**A.** Its value is 16.5 nM.

**Q.** What about the “apparent KD of MS2 coat protein” value [4] of the same sequence?
**A.** The value was 17.8 nM.

**Q.** How did the “apparent KD of MS2 coat protein” value (input ligand: FMN 200 uM) turn out when “GCCUUAUCCGUCAGGAUAUACAGCCGCUCCCUGUUGUAGAAGGGACAUGAGGAUCACCCAUGUACGUACCACUG [alecazam7] (Eterna round: R97, puzzle: Brourd's mod of Exclusion 4)” was run?
**A.** The value was 28.7 nM.

**Q.** And the “apparent KD of MS2 coat protein” value (input ligand: none)?
**A.** The value was 22.6 nM.

**Q.** “GCGAAAGCAAACAAGUGAAACAUGAGGAUCACCCAUGUCCUCAUUUGCUCGUCUUAUAAGCUAUGCGAAAGCAUAGC [Sensor 3, v1 - 6] (puzzle: Sensor v3, turn-off variant 1)” was tested. Which “apparent KD of MS2 coat protein” value [3] did it give?
**A.** Its value is 38 nM.

**Q.** What about the “apparent KD of MS2 coat protein” value [1] of the same sequence?
**A.** Its value is 269 nM.

**Q.** What about the “apparent KD of MS2 coat protein” value [4] of the same sequence?
**A.** The value was 41.6 nM.

**Q.** Which results are given for “GCGCACCUACCAAAAGGUAGGUCAACAUGAGGAUCACCCAUGUAGGAUAUCGAUUGCUUUGCAGUCGAGAAGGGCAUGAUGCGC [JL ENG3 3.80 Mod 14] (Eterna round: R96, puzzle: Exclusion NG 3)”?
**A.** apparent KD of MS2 coat protein (input ligand: FMN 200 uM): 59.1 nM; apparent KD of MS2 coat protein [2]: 36.6 nM; apparent KD of MS2 coat protein (input ligand: none): 44.2 nM

**Q.** Which results are given for “GCGCCAUCGUGAGAUGGCGUAAUUACAUGAGGAUCACCCAUGUAGGAUAUCGAUUGCUUUGCAGUCGAGAAGGGCAUGUUUUGU [JL ENG3 3.85] (Eterna round: R96, puzzle: Exclusion NG 3)”?
**A.** apparent KD of MS2 coat protein (input ligand: FMN 200 uM): 33.3 nM; apparent KD of MS2 coat protein [2]: 26.4 nM; apparent KD of MS2 coat protein (input ligand: none): 31.5 nM

**Q.** How did the “apparent KD of MS2 coat protein” value (input ligand: FMN 200 uM) turn out when “GCGCGAAGCAAGGAUAUCCCAGGGAGCUCCCUGGGAGAAGGUGCCACAUGAGGAUCACCCAUGUGGUGAUCCUG [eternacac ex6r4 sub16] (Eterna round: R97, puzzle: Exclusion 6)” was run?
**A.** Its value is 25.6 nM.

**Q.** And the “apparent KD of MS2 coat protein” value (input ligand: none)?
**A.** The value was 17.7 nM.

**Q.** Which “apparent KD of MS2 coat protein” value (input ligand: FMN 200 uM) does the source give for “GCGCUGCGAGGAUAUACAUGAGGAUCACCCAUGUGUCGGCAGCCAUGGUAGUACAAAUGUAGAAGGCGCGUAAA [EX3 #51] (Eterna round: R97, puzzle: Exclusion 3)” here?
**A.** The value was 202 nM.

**Q.** What about the “apparent KD of MS2 coat protein” value (input ligand: none) of the same sequence?
**A.** Its value is 165 nM.
